Test: label from the status in PepcDB records
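Note: failed if final PepcDB status was selected cloned or expressed and not failed if soluble or beyond.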

MEKEMARLAAFDMDGTLLMPDHHLGEKTLSTLARLRERDITLTFATGRHALEMQHILGALSLDAYLITGNGTRVHSLEGELLHRDDLPADVAELVLYQQWDTRASMHIFNDDGWFTGKENPALLQAFVYSGFRYQIIDVKKMPLGSVTKICFCGDHDDLTRLQIQLYEALGERAHLCFSATDCLEVLPVGCNKGAALTVLTQHLGLSLRDCMAFGDAMNDREMLGSVGSGFIMGNAMPQLRAELPHLPVIGHCRNQAVSHYLTHWLDYPHLPYSPE
protein production: failed

MHCALLYSGGKDSTLAALLLDPFYDVTLVSGSFGVRDTDPAQESATAVGFDHVTVDLDPDVAHDAVKQMFDDGYPRNGIQRVHEHAVETVARADWVADADGLGTLDAVADGTRRDDRVPTVDRPLAQSIEDRFDVDYLAPLAGIGRGAIDAMAADRLVVESGPSAEIPKADYEVELRALLRKRYGEGAVADVFPEHTQSRVQGLR
protein production: failed

NNELTQFLPRIVTLKKPPGAQLGFNIRGGKASQLGIFISKVIPDSDAHRAGLQEGTXVLAVNDVDFQDIEHSKAVEILKTAREISMRVRFF
protein production: not failed

MKEIKEITKKDVQDAEIYLYGSVVEGDYSIGLSDIDVAIVSDVFEDRNRKLEFFGKITKKFFDSPFEFHILTKKEWKMSKRFIRKYRRLDLIT
protein production: not failed

MSINIISIVSIIIWILLITELIKPSKEQNGRKIVTLVTAGSASTLILTVSFIQNIPFWN
protein production: failed

MKKNNAISNFYRILSIVLEIFIVAFSIYLAYMVRFRFRIIPPKFNYAPFERSLPFTIIVYMVFMYIFGLVDILKKSLWEIVYSIFLTVIMLFVFTMAITFSLRGFSYPRLVILLSSVFQFFLLSIFKCLWWKLERKIYGTKNTVIIGQNGESIAKKILLKHDDLYSISSIIKNYTEDKKSIVEKADIVLISDDLDENTKSTIIKESMYMNKNIFIVPSVTDIAFYKANFEQIDDVPILKVDTLELSAEQKTVKRLLDIVVAIIATVVFSPFLIILPIIIKCTDGGSPFYFQERVTNGGKKFKLIKFRSMIVNAEKHSGPVLVTENDSRITKIGKIMRATRLDEIPQLFNILKGDMSIVGPRPERPFYVEKFEKEIPDYKYRTFVKAGLTGLAQVLGKYNTTPEDKIKYDIMYIKNYSILLDIKLIIQTVKIMFMKESTEAVKDDVELEEILKKKNIKIKIY
protein production: failed

MGHHHHHHSHPPRDLDSKACISIGNQNFEVKADDLEPIMELGRGAYGVVEKMRHVPSGQIMAVKRIRATVNSQEQKRLLMDLDISMRTVDCPFTVTFYGALFREGDVWICMELMDTSLDKFYKQVIDKGQTIPEDILGKIAVSIVKALEHLHSKLSVIHRDVKPSNVLINALGQVKMCDFGISGYLVDSVAKTIDAGCKPYMAPERINPELNQKGYSVKSDIWSLGITMIELAILRFPYDSWGTPFQQLKQVVEEPSPQLPADKFSAEFVDFTSQCLKKNSKERPTYPELMQHPFFTLHESKGTDVASFVKLILGD
protein production: not failed

MHVAVRRSNTPHPLSSLRHDIVIEPLEEERPPSRFGYDMAGKALSVQPTIDPSAKLHETRLGAYTEVGARTILHEVTMGDYSYVVNDSQITYTTIGKFCSIAAMTRINPGNHPMHRATQAHFTYRSSAYFPGESDDTEFFDWRRQHHVHIGHDVWIGHGAIVLPGRNIGTGAVIAAGAIVTKDVPAYTIVAGNPARIVRRRFSEEIAGRLARLAWWDWDHDKLREALPDFRRLGIEDFLSTYEARAHSPVSKRSAVA
protein production: failed

MAADHTDVLIVGAGPTGLFAGFYVGMRGLSFRFVDPLPEPGGQLTALYPEKYIYDVAGFPKVYAKDLVKGLVEQVAPFNPVYSLGERAETLEREGDLFKVTTSQGNAYTAKAVIIAAGVGAFEPRRIGAPGEREFEGRGVYYAVKSKAEFQGKRVLIVGGGDSAVDWALNLLDTARRITLIHRRPQFRAHEASVKELMKAHEEGRLEVLTPYELRRVEGDERVRWAVVFHNQTQEELALEVDAVLILAGYITKLGPLANWGLALEKNKIKVDTTMATSIPGVYACGDIVTYPGKLPLIVLGFGEAAIAANHAAAYANPALKVNPGHSSEKAAPGT
protein production: not failed

MDRLKAMQVFVEVADRGSLSAAAMHLGMSRAMVSRYLAELEAWVGVRLLHRTTRRLSLTPAGSETLPRCRRMLEMVGDMREAVAAPDAEPRGLLRVTAAMSFGGAQLAEAVAEFVRRHPAASIDLLLVDRAVNLVEERVDLAVRITNDLDPNLIGRRLADCRSVVCAAPQYLQQHGAPARAEDLSLHNCLTHSYFGRSLWRFERAGEPVEVPVGGNITANETDVLMRAALAGAGIVMLPTYLAAGQIAAGTLRPLLPDCAPPVLGIHGVYVSRKQMPLILRTMLDFLAERFNPAPWDAALEGR
protein production: failed

MAYITYQQYLDLYGTCPISEEEFPVYAGLASDMIDSITRYRIVEGGGISALPSILQTLVQKAAAAQVLYFTQIGLETVLTGQAGQSFTVGKVSVSGGALSSTTTKPGALMVSPFALSLLEQTPLMERGVHVCSDRFLNPFWGILEHHHHHH
protein production: failed

MVASAPASAGTKGVIRQVIGPVLDVEFPAGKLPKIYNALRVETKNTAGQDVALTAEVQQLLGDHRVRAVAMSGTDGLVRGMEIADTGAPISVPVGEATLGRIFNVLGEPVDEQGPVNASATAPIHRDAPNLTELETKPKVFETGIKVIDLLAPYRQGGKVGLFGGAGVGKTVLIQELINNIAKEHGGVSVFGGVGERTREGNDLYEEFKESGVINADDLSKSKVALCYGQMNEPPGARMRVGLSALTMAEHFRDVNKQDVLLFVDNIFRFVQAGSEVSALLGRMPSAVGYQPTLGTDVGALQERVASTVEGSITSIQAVYVPADDLTDPAPATTFAHLDATTVLNRALASKGIYPAVDPLDSTSTMLQPAVVGDEHYRTARLVQSTLQRYKELQDIIAILGLDELSEDDRQTVDRARKVEKFLSQPFFVAEIFTGMPGKYVKLEETIAGFNQILAGELDHLPEAAFYLVGSIEEAKAKAEKIAAETK
protein production: failed

MKKTPIYVEISIQAEMERLWRYTQDPTLHRQWDLRFTDITYLKRRPGEPQRFLYETRIGFGLKISGTGESAGNVFQDTGDRVSSLKFATNHPLSVIREGRGYWKYSESETGITFMTQYDYDTRYGRLGRLADMAFRPLLGWATAWSFDALKIWLEKGLHPRLLFQKTLVYWLVCLLFSFVWIYQGLVPKLIMAHPGEISMLSAFTGGRFHPETLLRLIGLAEVMVGVLWLYPVRKRKWFLLHIVLLVLLSASAGMADIASFAEPFNPVVLNAALIILSVIGYVSACGIPNAGNTIRKRR
protein production: failed

MKKVSIIIPFKGQTEAELMLPLSSIYNQIGVDLSQLDIHLVNDGGKTIDLSKFDVLADRLEIHYHEIPNGGPGVARQYGIDNSISEYIMFIDADDVLYYVGALWPFYNASNQGHQMIRASYWEQIAGNPYTYTVHGNGDRKAAYGKWYKRSYIEMLGLRFMPDLPIYEDTYFVGLACELATDTCFLEEKVYMWLANPNSITRTVENKFNYQAHIYARENRYWFEMIRKWKPECLVTDFENYLTNMYLKSQKYPPVDEKAWWEEQHKLITSVSDIFSGWTQELQKQVEDKSANPQNEWHGIETDGFKEWATQSLPW
protein production: failed

MATLTEDDVLEQLDAQDNLFSFMKTAHSILLQGIRQFLPSLFVDNDEEIVEYAVKPLLAQSGPLDDIDVALRLIYALGKMDKWLYADITHFSQYWHYLNEQDETPGFADDITWDFISNVNSITRNATLYDALKAMKFADFAVWSEARFSGMVKTALTLAVTTTLKELTP
protein production: not failed

MAKSPKKSKSRLWFLVHSWLALPIWFFVLIVCFTGMLAVVSQEIVWLADPAARANKPDADTERMSFQQVLEALNKAEPDMVVERLSQPDGSHFAVKANVTLPDGTSPTLYVNPYTGTIQGRTPDFNFEAFTRALHGWWLVPFTNGFSWGWYLVSLLGLPMLASLVTGLVVYKKFWKGFFKPVRTGHGSRIFWGDLHRLSGVWSIWFIAVISITGTWFLIQAILSDNHITISSRPIVPVIAREEVPQTPDGSPASRIDLDEAARLAGLAIPGLEVTSITLPATAYSHVTLSGPGWYPLMFQSASVNPYTRNVDSQFLISDRSALEFVTESMRPLHTGDFGGLPIKLVWFFFGLILTLMVLSGLLIWTKRTAQATAAALKRSERAPRAAHSETTVEIHS
protein production: failed

MAPLLMILAAQLLIASGNLLVKLLETNTPVFQLVLYRQLFATLLVLPFVWHLQGNLKLSPFYKVHLSRALLIGLGNAIFMLAVLHLPLATVTAVIYSSPLILLLLSAFFLNERIGYRRSVAGLIGFTGILLISQPTEVNLYIGLAFFGAMISAINSLILKAYSTHEHPFSTLFWSNAFAMVFLIPATWYEGANFSLPVAQVGLTLGVFYVGMTYLIIHAYRRADASQMAPVEYTGLIFAALLGWWFLDETLSVVVCIGIGLVIFSSLLPSYGELKAKWKSRRR
protein production: failed

— a protein production outcome set (Wang et al. 2014)
